# Reference: PMC6155552, “Arabidopsis thaliana alcohol dehydrogenase is differently affected by several redox modifications” (PLoS ONE, 2018)
# T1: ADH (recombinant A. thaliana alcohol dehydrogenase, ADH1, At1g77120) (Arabidopsis thaliana, UniProt P06525)
# T1 construct: tag removal not mentioned
# T1 sequence (P06525 1-379): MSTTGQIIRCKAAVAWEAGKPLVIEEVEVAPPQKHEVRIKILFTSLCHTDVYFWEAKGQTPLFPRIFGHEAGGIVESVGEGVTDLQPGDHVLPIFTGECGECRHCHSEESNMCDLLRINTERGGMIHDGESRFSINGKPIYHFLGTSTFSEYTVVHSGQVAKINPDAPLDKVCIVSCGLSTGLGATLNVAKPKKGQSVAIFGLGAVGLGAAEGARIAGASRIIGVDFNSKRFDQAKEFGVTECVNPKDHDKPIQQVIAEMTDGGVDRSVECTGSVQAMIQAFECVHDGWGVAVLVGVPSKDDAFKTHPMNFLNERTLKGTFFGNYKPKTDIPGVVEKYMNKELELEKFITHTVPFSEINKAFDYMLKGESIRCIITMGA
# Legend:
# [1] = target: T1, ADH (recombinant A. thaliana alcohol dehydrogenase, ADH1, At1g77120); assay: protection of activity against inactivation by H2O2 or DEA/NO; format: biochemical; details: 0.02-0.2 mM NADH; 0.5 mM H2O2 or DEA/NO; 100 mM Tris-Cl pH 7.5; room temperature
# [2] = substrate: NC(=O)c1ccc[n+]([C@@H]2O[C@H](COP(=O)(O)OP(=O)(O)OC[C@H]3O[C@@H](n4cnc5c(N)ncnc54)[C@H](O)[C@@H]3O)[C@@H](O)[C@H]2O)c1; assay: microplate ADH activity assay, non-linear regression; format: biochemical, Arabidopsis thaliana; details: ethanol-to-acetaldehyde direction; NAD+ varied 0-0.8 mM; 5 mM DTT
# Excerpt: microplate ADH activity assay, non-linear regression on ADH (recombinant A. thaliana alcohol dehydrogenase, ADH1, At1g77120)
Molecule,protection of activity against inactivation by H2O2 or DEA/NO [1],Km [2] [µM],kcat [2] [s⁻¹],kcat/Km [2] [M⁻¹ s⁻¹]
NC(=O)C1=CN([C@@H]2O[C@H](COP(=O)(O)OP(=O)(O)OC[C@H]3O[C@@H](n4cnc5c(N)ncnc54)[C@H](O)[C@@H]3O)[C@@H](O)[C@H]2O)C=CC1 [NADH],presence of NADH allows the enzyme to keep a significantly higher activity level,,,
"ADH (recombinant A. thaliana alcohol dehydrogenase, ADH1, At1g77120) (Arabidopsis thaliana) (protein, tag removal not mentioned) MSTTGQIIRCKAAVAWEAGKPLVIEEVEVAPPQKHEVRIKILFTSLCHTDVYFWEAKGQTPLFPRIFGHEAGGIVESVGEGVTDLQPGDHVLPIFTGECGECRHCHSEESNMCDLLRINTERGGMIHDGESRFSINGKPIYHFLGTSTFSEYTVVHSGQVAKINPDAPLDKVCIVSCGLSTGLGATLNVAKPKKGQSVAIFGLGAVGLGAAEGARIAGASRIIGVDFNSKRFDQAKEFGVTECVNPKDHDKPIQQVIAEMTDGGVDRSVECTGSVQAMIQAFECVHDGWGVAVLVGVPSKDDAFKTHPMNFLNERTLKGTFFGNYKPKTDIPGVVEKYMNKELELEKFITHTVPFSEINKAFDYMLKGESIRCIITMGA",,166 ± 17,31.5 ± 2.7,191000 ± 8000
"ADH (recombinant A. thaliana alcohol dehydrogenase, ADH1, At1g77120) (Arabidopsis thaliana; C243S) (protein, tag removal not mentioned) MSTTGQIIRCKAAVAWEAGKPLVIEEVEVAPPQKHEVRIKILFTSLCHTDVYFWEAKGQTPLFPRIFGHEAGGIVESVGEGVTDLQPGDHVLPIFTGECGECRHCHSEESNMCDLLRINTERGGMIHDGESRFSINGKPIYHFLGTSTFSEYTVVHSGQVAKINPDAPLDKVCIVSCGLSTGLGATLNVAKPKKGQSVAIFGLGAVGLGAAEGARIAGASRIIGVDFNSKRFDQAKEFGVTESVNPKDHDKPIQQVIAEMTDGGVDRSVECTGSVQAMIQAFECVHDGWGVAVLVGVPSKDDAFKTHPMNFLNERTLKGTFFGNYKPKTDIPGVVEKYMNKELELEKFITHTVPFSEINKAFDYMLKGESIRCIITMGA",,251 ± 17,52.1 ± 3,208000 ± 5000
